Assay results published in the supplement of paper PMC9732359.
± gives the uncertainty stated by the source.

Test: protein stability index of a GFP-peptide fusion (yeast GPS) (PSI 1-4); higher = more stable; sorted into four equal gates, so the index is relative within each strain
Summary of the method: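 Plasmids in a pooled yeast library fused tiled 17-residue yeast protein peptides downstream of GFP and also expressed Cherry. Mid-log cultures grown without leucine were sorted into four equal gates by GFP/Cherry fluorescence ratio. Each gate's plasmids were PCR-amplified and Illumina-sequenced, and reads were matched to strains by barcodes. The protein stability index is derived by multiplying each gate's read frequency by its gate number and summing the results.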

Row | Sequence | protein stability index (doa10∆) | protein stability index (pdr5∆) | protein stability index (san1∆) | protein stability index (ubr1∆)
1 | ERLMISSDAFEVDVCDK [RET1] | 2.31 ± 0.11 | 2.63 ± 0.05 | 2.04 ± 0.061 | 2.21 ± 0.061
2 | TNLGQPHSLATKTTGKC [RPS2] | 2.44 ± 0.13 | 2.69 ± 0.13 | 2.38 ± 0.088 | 2.5 ± 0.11
3 | FSQKANKTKAVDNTVPS [YOR098C/NUP1] | 2.15 ± 0.085 | 1.63 ± 0.056 | 1.81 ± 0.1 | 2.17 ± 0.046
4 | YLTPPHECRLRDMTYSA [RET1] | 3.22 ± 0.11 | 3.02 ± 0.12 | 2.76 ± 0.16 | 3.14 ± 0.15
5 | GRDTTDYLKNIIVENSG [RPN2] | 3.21 ± 0.13 | 2.83 ± 0.17 | 3.34 ± 0.12 | 3.4 ± 0.23
6 | INELVLENFKSYAGKQV [SMC4] | 2.69 ± 0.075 | 2.75 ± 0.057 | 2.39 ± 0.079 | 2.74 ± 0.049
7 | YLERTLDTFIKIDGNPD [PRE5] | 2.73 ± 0.098 | 3.2 ± 0.092 | 3.04 ± 0.055 | 3.3 ± 0.078
8 | PVLFNRQPSLHKMSMMA [RPO21] | 2.54 ± 0.11 | 2.95 ± 0.093 | 3.05 ± 0.23 | 2.23 ± 0.16
9 | TPKITAAEKSFKPPKNK [SEC65] | 2.9 ± 0.28 | 3.14 ± 0.2 | 3.04 ± 0.12 | 3.14 ± 0.12
10 | RQQYYSGVQVGGVGSMG [SNF6] | 2.08 ± 0.068 | 2.44 ± 0.11 | 2.19 ± 0.094 | 2.24 ± 0.056
11 | LKEYQSKIIVFPRDGKA [RPL13B] | 2.95 ± 0.082 | 3.17 ± 0.072 | 3.22 ± 0.048 | 3.17 ± 0.054
12 | TTTTTTTNNNNTNNNNT [SWI1] | 3.18 ± 0.034 | 3.18 ± 0.05 | 3.303 ± 0.021 | 3.465 ± 0.024
13 | VISFGQPKLNPMASSSS [SWI1] | 2.15 ± 0.06 | 1.92 ± 0.074 | 2.61 ± 0.11 | 2.13 ± 0.056
14 | PKSASNTSSKRQKKKPT [IRR1] | 2.78 ± 0.069 | 2.61 ± 0.072 | 2.65 ± 0.049 | 2.96 ± 0.072
15 | RYLTLLSNEFTATNSKG [ECM29] | 2.89 ± 0.073 | 2.76 ± 0.064 | 2.61 ± 0.088 | 2.83 ± 0.052
16 | LDIPNVSLVVNFQISKK [PRP28] | 2.32 ± 0.067 | 2.51 ± 0.077 | 2.35 ± 0.087 | 2.71 ± 0.069
17 | GNGEGLGGDSDEANIEI [BRN1] | 3.11 ± 0.17 | 3.48 ± 0.27 | 2.95 ± 0.17 | –
18 | ISKSLTFSQESGLMVIL [RRI2] | 2.23 ± 0.095 | 2.33 ± 0.11 | 2.29 ± 0.094 | 2.27 ± 0.072
19 | STFTKHLIKCFFKITLQ [ITC1] | 1.43 ± 0.039 | 1.28 ± 0.03 | 1.51 ± 0.058 | 1.6 ± 0.03
20 | SIDFRTYRCSIKNLPAD [SRB2] | 2.32 ± 0.074 | 2.56 ± 0.079 | 2.19 ± 0.07 | 2.27 ± 0.067
21 | EIALKGLESLLNIGLGA [YCS4] | 2.65 ± 0.11 | 2.47 ± 0.092 | 3.03 ± 0.13 | 2.77 ± 0.21
22 | YILSLVSIKDSTGCVVG [YMR129W/POM152] | 1.41 ± 0.041 | 1.47 ± 0.047 | 1.92 ± 0.062 | 1.48 ± 0.034
23 | LESLKPIDDTMTLLTDS [MTW1] | 3 ± 0.092 | 2.95 ± 0.054 | 3.04 ± 0.058 | 2.98 ± 0.046
24 | SRRLMKSLEDLSCQYDN [RPO31] | 2.04 ± 0.11 | 1.42 ± 0.17 | 1.36 ± 0.2 | 1.27 ± 0.085
25 | ITATLVGTVRCEEEKKT [CSL4] | 1.54 ± 0.14 | 1.9 ± 0.25 | 1.67 ± 0.16 | 1.58 ± 0.079

Row | Sequence | protein stability index (doa10∆) | protein stability index (pdr5∆) | protein stability index (san1∆) | protein stability index (ubr1∆)
26 | EEQEEEPDREKIKLLTQ [RPC19] | 2.93 ± 0.25 | 3.24 ± 0.11 | 2.52 ± 0.15 | 2.65 ± 0.23
27 | DPFSIYGFSNKEYISRL [SNF5] | 1.89 ± 0.066 | 2.39 ± 0.15 | 2.69 ± 0.071 | 2.34 ± 0.075
28 | PTPAASAPAPAAAAPAP [FAS2] | 2.95 ± 0.1 | 3.05 ± 0.073 | 2.72 ± 0.074 | 3.1 ± 0.079
29 | SAQQNLASSFVNGFLNL [RPN1] | 2.73 ± 0.094 | 2.54 ± 0.067 | 3.1 ± 0.059 | 2.75 ± 0.068
30 | NKVSNTVSPTQDKDAIR [SIR2] | 2.98 ± 0.052 | 3.26 ± 0.07 | 3.17 ± 0.056 | 3.11 ± 0.054
31 | YHGNECEINYYEILLKI [SRB8] | 1.66 ± 0.055 | 2.86 ± 0.082 | 2.24 ± 0.089 | 2.4 ± 0.082
32 | LVDILPPDSDSSISVMG [RPT3] | 2.23 ± 0.068 | 2.27 ± 0.063 | 2.24 ± 0.065 | 2.72 ± 0.055
33 | TIIFIDELDAIGTKRFD [RPT5] | 2.75 ± 0.069 | 2.33 ± 0.045 | 2.5 ± 0.075 | 2.42 ± 0.059
34 | SAGRIESNNPSHDASRS [SIR4] | 2.85 ± 0.21 | 2.3 ± 0.11 | – | 2.98 ± 0.17
35 | NEGVPSPMLSISNLTQE [FAS1] | 2.84 ± 0.055 | 2.94 ± 0.062 | 2.96 ± 0.058 | 3.12 ± 0.059
36 | DAYYDLELRNSVMDDIL [PRP8] | 2.98 ± 0.055 | 3.04 ± 0.044 | 2.93 ± 0.049 | 3.09 ± 0.036
37 | ENEDGNIEERKEKIQHE [BRR2] | 3.23 ± 0.14 | 3.47 ± 0.1 | 3.57 ± 0.092 | 3.3 ± 0.15
38 | ELAGDEELEAEQIDVFS [PRP8] | 3.43 ± 0.079 | 3.27 ± 0.13 | 3.08 ± 0.12 | 2.82 ± 0.13
39 | SAFACKTDEVIILGTNL [BRR2] | 2.86 ± 0.054 | 3 ± 0.043 | 2.94 ± 0.04 | 2.9 ± 0.035
40 | LKYYQDLKNTRMKSITS [SNF5] | 1.45 ± 0.23 | 2.24 ± 0.19 | 2.4 ± 0.15 | 2.98 ± 0.22
41 | IQFGAKNMFEKKASKVT [ISW2] | 2.66 ± 0.07 | 2.91 ± 0.072 | 2.68 ± 0.074 | 2.69 ± 0.11
42 | MSDEDNNYDDFMLSDDE [RRI2] | – | 3.58 ± 0.23 | 3.28 ± 0.25 | –
43 | TTLKSVTIASEIYYDPD [RPO21] | 2.75 ± 0.1 | 2.45 ± 0.085 | 2.82 ± 0.099 | 2.24 ± 0.055
44 | KSPEQCILRFLQLPIED [SWI3] | 1.81 ± 0.067 | 2.3 ± 0.062 | 1.76 ± 0.12 | 1.41 ± 0.038
45 | KSLEVVNADTVGKTVKQ [NSL1] | 3.13 ± 0.059 | 2.99 ± 0.049 | 2.77 ± 0.051 | 3.08 ± 0.047
46 | KGKKYQPKDLRAKKTRA [RPL35A] | 2.85 ± 0.25 | 2.98 ± 0.14 | 2.46 ± 0.13 | 2.89 ± 0.12
47 | IEWCSRCNDNLMRSCFY [YJL039C/NUP192] | 3.17 ± 0.089 | 2.68 ± 0.085 | 2.9 ± 0.067 | 2.69 ± 0.083
48 | TNFKEEITDASLNLQYV [YML103C/NUP188] | 3.08 ± 0.12 | 3.06 ± 0.084 | 3.18 ± 0.13 | 3.06 ± 0.087
49 | NTHWGLVCPAETPEGQA [RPB2] | 1.53 ± 0.14 | 1.49 ± 0.1 | 1.78 ± 0.15 | 1.14 ± 0.097
50 | EDGRTLSDYNIQKESTL [RPS31] | 2.92 ± 0.081 | 3.02 ± 0.066 | 3.05 ± 0.065 | 3.01 ± 0.09
